The target in this test is T1, GST-BRCA1-N (N-terminal of BRCA1, 1-147 aa) (human, UniProt P38398 1-147).
T1 construct: BRCA1, human, N-terminal residues 1-147; Cloned into pGEX-4T-1, which as far as I know puts GST at the N-terminus; also called recombinant BRCA1-N
As to the kind of experiment: MST; RED-NHS-labelled GST-BARD1-N or GST-BARD1^P24S-N at constant concentration (10-50 nM), twofold serial dilutions of GST-BRCA1-N; 50 mM Tris-HCl pH 7.4, 150 mM NaCl, 10 mM MgCl2, 0.05% Tween 20; 15 min at room temperature; Monolith NT.115, 20% and 40% MST power. Conditions: both partners purified.

T1 sequence (P38398 1-147): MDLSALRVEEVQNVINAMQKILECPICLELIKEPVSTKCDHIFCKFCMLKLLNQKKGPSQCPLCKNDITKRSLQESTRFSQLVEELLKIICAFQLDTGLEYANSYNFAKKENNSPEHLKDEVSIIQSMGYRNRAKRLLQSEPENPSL

B1: GST-BARD1-N (N-terminal of BARD1, 1-142 aa) (domain or fragment, human, UniProt Q99728 1-142, looked up)
chain: MPDNRQPRNRQPRIRSGNEPRSAPAMEPDGRGAWAHSRAALDRLEKLLRCSRCTNILREPVCLGGCEHIFCSNCVSDCIGTGCPVCYTPAWIQDLKINRQLDSMIQLCSKLRNLLHDNELSDLKEDKPRKSLFNDAGNKKNS
modifications: fluorescent label from the RED-NHS protein labeling kit (NanoTemper)
notes: BRCA1-associated RING-domain protein 1 (BARD1), human, N-terminal residues 1-142; Cloned into pGEX-4T-1, which as far as I know puts GST at the N-terminus
As for B1, the Kd worked out at 890 nM.

Source of the values: article PMC7902612, “A synergetic effect of BARD1 mutations on tumorigenesis” (Nature Communications, 2021).
